Source: patent publication US20210369850, “COMPOUNDS AND […] USES […]” (CENTAURI THERAPEUTICS LIMITED, published 2021)

Columns and labels:
Details in all cases: tags: endogenous on A431 cells (ATCC CRL-1555)
[1] = target: T1, EGFR (epidermal growth factor receptor) (Homo sapiens, UniProt P00533 P00533:25-1210); assay: flow
Method: (§1) A secondary phycoerythrin labelled anti-human IgG antibody was used to detect binding of alpha-galactosyl IgG antibody to the compound.
(§2) A431 cells (ATCC CRL-1555) were harvested and resuspended at 5×10⁶ cells/mL in phosphate buffered saline (PBS) (Sigma D8662)+0.1% BSA (Bovine Serum Albumin-Sigma A2153)+0.1 mg/mL Yeast t-RNA (Invitrogen 15401-011)+5 mM MgCl₂ (Sigma M1028) and incubated on ice for 30 minutes to block. 5×10⁵ cells were then incubated with compound at various concentrations as described below or buffer alone at room temperature, shaking at 450 rpm for 1 hour. The cells were washed with 3×200 μL PBS+0.1% BSA, prior to adding 50 μL of Anti-alpha galactosyl IgG antibody (custom purification from human IVIG, Rockland Immunochemicals, Inc.) at 45 μg/mL in PBS+0.1% BSA and incubating at 4° C. for 1 hour. […] After a final wash of 3×200 μL PBS+0.1% BSA the cells were resuspended in 200 μL PBS+0.1% BSA and evaluated on a flow cytometer (FC500 Beckman Coulter). Data from all samples were analysed in the Kaluza software package (Beckman Coulter).
(§3) The fold shift over background was calculated by dividing the Mean Fluorescence Intensity (MFI) obtained in the presence of 10 nM or 1 μM alphamer by the Mean Fluorescence Intensity (MFI) obtained in the absence of alphamer. […]

[2] = target: T1, EGFR (epidermal growth factor receptor); assay: flow; at 1 uM (5.8 at 10 nM); same conditions
Method: as §1, §2, §3

[3] = target: T1, EGFR (epidermal growth factor receptor); assay: flow; at 1 uM (4.2 at 10 nM); same conditions
Method: as §1, §2, §3

[4] = target: T1, EGFR (epidermal growth factor receptor); assay: flow; at 1 uM (6.4 at 10 nM); same conditions
Method: as §1, §2, §3

[5] = target: T1, EGFR (epidermal growth factor receptor); assay: flow; at 1 uM (2.5 at 10 nM); same conditions
Method: as §1, §2, §3

[6] = target: T1, EGFR (epidermal growth factor receptor); assay: flow; at 1 uM (7.1 at 10 nM); same conditions
Method: as §1, §2, §3

[7] = target: T1, EGFR (epidermal growth factor receptor); assay: flow; at 1 uM (6.5 at 10 nM); same conditions
Method: as §1, §2, §3

[8] = target: T1, EGFR (epidermal growth factor receptor); assay: flow; at 1 uM (5.7 at 10 nM); same conditions
Method: as §1, §2, §3

[9] = target: T1, EGFR (epidermal growth factor receptor); assay: flow; at 1 uM (7.0 at 10 nM); same conditions
Method: as §1, §2, §3

[10] = target: T1, EGFR (epidermal growth factor receptor); assay: flow; at 1 uM (5.5 at 10 nM); same conditions
Method: as §1, §2, §3

[11] = target: T1, EGFR (epidermal growth factor receptor); assay: flow; at 1 uM (5.9 at 10 nM); same conditions
Method: as §1, §2, §3

[12] = target: T1, EGFR (epidermal growth factor receptor); assay: flow; at 1 uM (3.8 at 10 nM); same conditions
Method: as §1, §2, §3

Binder: GGGAUUUAAUCGCCGUAGAAAAGCAUGUCAAAGCCGGAACCC (ssRNA, as N22 but 5' alpha-Gal moiety from Preparation 90) [RNA aptamer conjugate 4 (Example 26)]
- binding signal [1]: 3.3 fold MFI over background

Binder: GGGAUUUAAUCGCCGUAGAAAAGCAUGUCAAAGCCGGAACCC (ssRNA, as N22 but 5' alpha-Gal moiety from Preparation 87) [RNA aptamer conjugate 9 (Example 31)]
- binding signal [2]: 12.5 fold MFI over background

Binder: GGGAUUUAAUCGCCGUAGAAAAGCAUGUCAAAGCCGGAACCC (ssRNA, as N22 but 5' alpha-Gal moiety from Preparation 91) [RNA aptamer conjugate 12 (Example 34)]
- binding signal [3]: 7.6 fold MFI over background

Binder: GGGAUUUAAUCGCCGUAGAAAAGCAUGUCAAAGCCGGAACCC (ssRNA, as N22 but 5' alpha-Gal moiety from Preparation 96) [RNA aptamer conjugate 13 (Example 35)]
- binding signal [4]: 12.3 fold MFI over background

Binder: GGGAUUUAAUCGCCGUAGAAAAGCAUGUCAAAGCCGGAACCC (ssRNA, as N22 but 5' alpha-Gal moiety from Preparation 85) [RNA aptamer conjugate 5 (Example 27)]
- binding signal [5]: 4.1 fold MFI over background

Binder: GGGAUUUAAUCGCCGUAGAAAAGCAUGUCAAAGCCGGAACCC (ssRNA, as N22 but 5' alpha-Gal moiety from Preparation 95) [RNA aptamer conjugate 14 (Example 36)]
- binding signal [6]: 12.4 fold MFI over background

Binder: GGGAUUUAAUCGCCGUAGAAAAGCAUGUCAAAGCCGGAACCC (ssRNA, as N22 but 5' alpha-Gal moiety from Preparation 92) [RNA aptamer conjugate 17 (Example 39)]
- binding signal [7]: 10.4 fold MFI over background

Binder: GGGAUUUAAUCGCCGUAGAAAAGCAUGUCAAAGCCGGAACCC (ssRNA, as N22 but 5' alpha-Gal moiety from Preparation 97) [RNA aptamer conjugate 15 (Example 37)]
- binding signal [4]: 12.2 fold MFI over background

Binder: GGGAUUUAAUCGCCGUAGAAAAGCAUGUCAAAGCCGGAACCC (ssRNA, as N22 but 5' alpha-Gal moiety from Preparation 89) [RNA aptamer conjugate 10 (Example 32)]
- binding signal [8]: 10.4 fold MFI over background

Binder: GGGAUUUAAUCGCCGUAGAAAAGCAUGUCAAAGCCGGAACCC (ssRNA, as N22 but 5' alpha-Gal moiety from Preparation 86) [RNA aptamer conjugate 6 (Example 28)]
- binding signal [3]: 8.1 fold MFI over background

Binder: GGGAUUUAAUCGCCGUAGAAAAGCAUGUCAAAGCCGGAACCC (ssRNA, as N22 but 5' alpha-Gal moiety from Preparation 98) [RNA aptamer conjugate 16 (Example 38)]
- binding signal [9]: 13.6 fold MFI over background

Binder: GGGAUUUAAUCGCCGUAGAAAAGCAUGUCAAAGCCGGAACCC (ssRNA, as N22 but 5' alpha-Gal moiety from Preparation 83) [RNA aptamer conjugate 8 (Example 30)]
- binding signal [10]: 10.5 fold MFI over background

Binder: GGGAUUUAAUCGCCGUAGAAAAGCAUGUCAAAGCCGGAACCC (ssRNA, as N22 but 5' alpha-Gal moiety from Preparation 88) [RNA aptamer conjugate 11 (Example 33)]
- binding signal [11]: 11 fold MFI over background

Binder: GGGAUUUAAUCGCCGUAGAAAAGCAUGUCAAAGCCGGAACCC (ssRNA, as N22 but 5' alpha-Gal moiety from Preparation 84) [RNA aptamer conjugate 7 (Example 29)]
- binding signal [12]: 8.2 fold MFI over background
